Measurements published in US20220348620A1 (WISTAR INSTITUTE OF ANATOMY AND BIOLOGY, published 2022).
Blank lines part the entries; values can stand above or below the binder they belong to.

What was measured:
[1] = molecular target: Dynamin-Related Protein-1 (Drp1), endogenous in PC3 cells (human, UniProt O00429 1-736, limits assumed); assay: co-immunoprecipitation with anti-Flag from PC3 cells, Western blot
[2] = molecular target: T1, recombinant full length human VDAC1 (hVDAC1) (human, UniProt P21796 1-283); assay: isothermal titration calorimetry, 100 µM peptide injected into 10 µM hVDAC1, 20 °C
T1 construct: domain: full length; also called human recombinant VDAC; recombinant VDAC1
Description: (§1) Isothermal titration calorimetry (ITC). ITC experiments were performed using MlcroCal iTC200 (Malvern). Purified full-length hVDAC1 was buffer-exchanged into 25 mM HEPES-KOH (pH 7.5), 0.1 M KCl, 5% glycerol, 2% n-Octylglucoside, and 1 mM TCEP (ITC buffer). […] The ITC binding experiments were carried out at 20° C. Peptides at a concentration of 100 μM were added by 2.47 μl injections to 10 μM hVDAC1. The data collected was processed in MicroCal Origin software (Malvern).

[3] = molecular target: T1, recombinant full length human VDAC1 …; assay: isothermal titration calorimetry, peptide injected into human recombinant VDAC
Description: as §1

[4] = molecular target: T2, hexokinase-II (HK-II), endogenous in PC3 cells (human, UniProt P52789 1-917); assay: co-immunoprecipitation with anti-Flag from transfected PC3 cells, Western blot and densitometry (AU)
T2 sequence (looked up): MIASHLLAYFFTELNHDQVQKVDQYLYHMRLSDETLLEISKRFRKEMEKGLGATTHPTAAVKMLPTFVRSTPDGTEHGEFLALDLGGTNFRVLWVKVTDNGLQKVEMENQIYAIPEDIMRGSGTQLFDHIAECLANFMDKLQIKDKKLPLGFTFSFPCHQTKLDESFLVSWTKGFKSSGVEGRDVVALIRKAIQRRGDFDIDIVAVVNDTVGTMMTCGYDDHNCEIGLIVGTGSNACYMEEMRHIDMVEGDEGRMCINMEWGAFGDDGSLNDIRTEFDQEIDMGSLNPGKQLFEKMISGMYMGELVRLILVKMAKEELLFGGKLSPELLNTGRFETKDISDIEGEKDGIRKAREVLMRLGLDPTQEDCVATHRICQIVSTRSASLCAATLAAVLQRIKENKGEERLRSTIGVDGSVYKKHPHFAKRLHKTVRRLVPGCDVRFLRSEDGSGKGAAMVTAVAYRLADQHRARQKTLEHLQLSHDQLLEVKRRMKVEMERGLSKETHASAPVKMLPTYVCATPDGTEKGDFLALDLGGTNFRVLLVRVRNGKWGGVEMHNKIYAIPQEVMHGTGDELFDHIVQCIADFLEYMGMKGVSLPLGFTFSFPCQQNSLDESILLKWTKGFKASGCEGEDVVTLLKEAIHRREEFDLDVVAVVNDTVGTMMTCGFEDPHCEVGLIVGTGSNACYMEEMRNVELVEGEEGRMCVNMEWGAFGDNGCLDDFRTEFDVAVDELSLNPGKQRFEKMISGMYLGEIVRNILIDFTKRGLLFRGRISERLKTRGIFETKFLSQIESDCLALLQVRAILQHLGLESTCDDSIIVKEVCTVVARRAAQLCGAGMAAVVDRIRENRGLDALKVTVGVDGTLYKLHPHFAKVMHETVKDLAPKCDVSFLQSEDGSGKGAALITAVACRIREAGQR

[5] = molecular target: T1, recombinant full length human VDAC1 …; assay: isothermal titration calorimetry, scrambled peptide injected into human recombinant VDAC
Description: as §1

[6] = molecular target: T3, VDAC1 (endogenous, in PC3 cell extracts) (human, UniProt P21796 2-283); assay: co-immunoprecipitation with anti-Flag from PC3 cells, Western blot
T3 construct: also called voltage-dependent anion channel-1

[7] = molecular target: T4, hexokinase-I (HK-I), endogenous in PC3 cells (human, UniProt P19367 1-917); assay: as above
T4 sequence (looked up): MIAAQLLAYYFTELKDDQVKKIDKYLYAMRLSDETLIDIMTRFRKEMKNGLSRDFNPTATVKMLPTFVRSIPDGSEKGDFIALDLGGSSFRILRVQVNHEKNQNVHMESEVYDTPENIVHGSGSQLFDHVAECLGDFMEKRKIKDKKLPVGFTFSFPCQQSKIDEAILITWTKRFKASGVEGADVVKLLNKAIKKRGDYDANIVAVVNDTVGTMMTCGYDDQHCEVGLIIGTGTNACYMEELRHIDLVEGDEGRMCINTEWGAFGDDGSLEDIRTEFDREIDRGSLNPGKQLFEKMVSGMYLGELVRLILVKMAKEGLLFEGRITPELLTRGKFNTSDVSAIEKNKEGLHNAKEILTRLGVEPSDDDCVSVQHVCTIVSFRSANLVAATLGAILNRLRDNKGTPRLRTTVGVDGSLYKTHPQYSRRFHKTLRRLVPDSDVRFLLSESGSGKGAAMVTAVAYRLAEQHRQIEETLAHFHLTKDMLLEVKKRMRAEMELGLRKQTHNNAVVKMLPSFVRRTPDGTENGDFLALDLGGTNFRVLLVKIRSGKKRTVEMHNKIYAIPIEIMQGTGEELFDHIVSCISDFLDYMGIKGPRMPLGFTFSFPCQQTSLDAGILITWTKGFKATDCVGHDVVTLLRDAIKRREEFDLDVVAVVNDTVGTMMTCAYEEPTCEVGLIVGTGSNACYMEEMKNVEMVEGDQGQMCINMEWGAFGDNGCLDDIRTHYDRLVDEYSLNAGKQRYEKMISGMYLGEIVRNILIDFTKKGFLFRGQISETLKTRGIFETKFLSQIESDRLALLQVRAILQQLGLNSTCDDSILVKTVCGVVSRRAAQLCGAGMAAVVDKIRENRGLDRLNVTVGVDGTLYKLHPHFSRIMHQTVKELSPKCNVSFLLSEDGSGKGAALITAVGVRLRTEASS

[8] = molecular target: T2, hexokinase-II (HK-II), endogenous in …; assay: affinity chromatography of PC3 cell extracts on beads-coupled MFF peptide #8, Western blot of bound proteins
[9] = molecular target: T3, VDAC1 (endogenous, in PC3 cell extracts); assay: as above
[10] = molecular target: T4, hexokinase-I (HK-I), endogenous in PC3 …; assay: as above

T1 sequence (P21796 whole entry): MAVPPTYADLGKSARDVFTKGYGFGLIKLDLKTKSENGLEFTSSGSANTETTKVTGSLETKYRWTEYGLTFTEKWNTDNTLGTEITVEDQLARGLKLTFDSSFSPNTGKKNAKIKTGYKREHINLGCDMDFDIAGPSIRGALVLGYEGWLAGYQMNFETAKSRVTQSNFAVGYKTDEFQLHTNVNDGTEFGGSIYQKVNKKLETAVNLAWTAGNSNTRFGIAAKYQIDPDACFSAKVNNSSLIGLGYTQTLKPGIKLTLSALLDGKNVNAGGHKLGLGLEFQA
T3 sequence (P21796 2-283 limits assumed): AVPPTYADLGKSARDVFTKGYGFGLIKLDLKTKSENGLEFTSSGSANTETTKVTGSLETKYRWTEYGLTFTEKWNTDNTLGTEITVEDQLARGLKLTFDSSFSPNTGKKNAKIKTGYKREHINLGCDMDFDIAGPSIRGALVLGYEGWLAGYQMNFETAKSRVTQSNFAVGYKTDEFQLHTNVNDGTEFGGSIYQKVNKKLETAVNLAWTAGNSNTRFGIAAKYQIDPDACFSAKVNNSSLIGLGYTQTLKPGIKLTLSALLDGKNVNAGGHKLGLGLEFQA
Sequence of Dynamin-Related Protein-1 (Drp1), endogenous in PC3 cells (O00429 whole entry): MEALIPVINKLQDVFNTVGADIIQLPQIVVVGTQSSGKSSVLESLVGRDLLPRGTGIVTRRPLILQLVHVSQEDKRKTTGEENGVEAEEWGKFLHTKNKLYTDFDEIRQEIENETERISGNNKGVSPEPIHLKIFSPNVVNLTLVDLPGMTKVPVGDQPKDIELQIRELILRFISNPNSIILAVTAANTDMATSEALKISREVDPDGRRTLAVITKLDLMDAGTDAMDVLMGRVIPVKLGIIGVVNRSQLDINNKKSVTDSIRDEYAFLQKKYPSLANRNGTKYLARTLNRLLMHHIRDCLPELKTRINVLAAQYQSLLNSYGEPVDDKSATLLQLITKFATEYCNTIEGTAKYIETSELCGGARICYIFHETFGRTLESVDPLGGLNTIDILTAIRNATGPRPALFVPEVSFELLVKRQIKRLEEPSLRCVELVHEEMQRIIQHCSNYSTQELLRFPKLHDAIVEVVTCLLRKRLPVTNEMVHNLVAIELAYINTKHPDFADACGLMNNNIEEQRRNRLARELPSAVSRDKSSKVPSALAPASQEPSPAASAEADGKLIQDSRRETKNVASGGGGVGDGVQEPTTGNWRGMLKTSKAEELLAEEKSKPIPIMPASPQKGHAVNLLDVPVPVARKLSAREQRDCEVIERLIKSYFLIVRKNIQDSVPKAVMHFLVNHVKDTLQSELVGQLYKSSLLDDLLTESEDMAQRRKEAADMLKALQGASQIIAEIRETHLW

B2: MFF peptide #8-11 (Ser223-Leu243 of MFF1), wild type (peptide)
peptide: SARGILSLIQSSTRRAYQQIL
notes: Plain synthetic peptide (not the cell-permeable form) as used in ITC; also called WT MFF peptide #8-11; MFF (L) peptide #8-11
Kd [2]: ~12 µM
Kd [3]: 12 µM

B3: Flag-MFF1 Q241A (other, not shown: small tags and cut ends)
chain: MSKGTSSDTSLGRVSRAAFPSPTAAEMAEISRIQYEMEYTEGISQRMRVPEKLKVAPPNADLEQGFQEGVPNASVIMQVPERIVVAGNNEDVSFSRPADLDLIQSTPFKPLALKTPPRVLTLSERPLDFLDLERPPTTPQNEEIRAVGRLKRERSMSENAVRQNGQLVRNDSLWHRSDSAPRNKISRFQAPISAPEYTVTPSPQQARVCPPHMLPEDGANLSSARGILSLIQSSTRRAYQAILDVLDENRRPVLRGGSAAATSNPHHDNVRYGISNIDTTIEGTSDDLTVVDAASLRRQIIKLNRRLQLLEEENKERAKREMVMYSITVAFWLLNSWLWFRR
notes: also called mutant Flag-MFF Q241A
binding result [4]: binds

B4: Flag-MFF1 R236D (other, not shown: small tags and cut ends)
chain: MSKGTSSDTSLGRVSRAAFPSPTAAEMAEISRIQYEMEYTEGISQRMRVPEKLKVAPPNADLEQGFQEGVPNASVIMQVPERIVVAGNNEDVSFSRPADLDLIQSTPFKPLALKTPPRVLTLSERPLDFLDLERPPTTPQNEEIRAVGRLKRERSMSENAVRQNGQLVRNDSLWHRSDSAPRNKISRFQAPISAPEYTVTPSPQQARVCPPHMLPEDGANLSSARGILSLIQSSTDRAYQQILDVLDENRRPVLRGGSAAATSNPHHDNVRYGISNIDTTIEGTSDDLTVVDAASLRRQIIKLNRRLQLLEEENKERAKREMVMYSITVAFWLLNSWLWFRR
notes: also called mutant Flag-MFF R236D
binding result [4]: binds

B5: Flag-MFF1 R225D (other, not shown: small tags and cut ends)
chain: MSKGTSSDTSLGRVSRAAFPSPTAAEMAEISRIQYEMEYTEGISQRMRVPEKLKVAPPNADLEQGFQEGVPNASVIMQVPERIVVAGNNEDVSFSRPADLDLIQSTPFKPLALKTPPRVLTLSERPLDFLDLERPPTTPQNEEIRAVGRLKRERSMSENAVRQNGQLVRNDSLWHRSDSAPRNKISRFQAPISAPEYTVTPSPQQARVCPPHMLPEDGANLSSADGILSLIQSSTRRAYQQILDVLDENRRPVLRGGSAAATSNPHHDNVRYGISNIDTTIEGTSDDLTVVDAASLRRQIIKLNRRLQLLEEENKERAKREMVMYSITVAFWLLNSWLWFRR
notes: also called mutant Flag-MFF R225D
binding result [4]: binds

Second part, the binder after the results:

binding result [1]: no binding
B1: Flag-MFF2 (other, human, UniProt Q9GZY8-2 1-291, looked up)
chain: MAEISRIQYEMEYTEGISQRMRVPEKLKVAPPNADLEQGFQEGVPNASVIMQVPERIVVAGNNEDVSFSRPADLDLIQSTPFKPLALKTPPRVLTLSERPLDFLDLERPPTTPQNEEIRAVGRLKRERSMSENAVRQNGQLVRNDSLVTPSPQQARVCPPHMLPEDGANLSSARGILSLIQSSTRRAYQQILDVLDENRRPVLRGGSAAATSNPHHDNVRYGISNIDTTIEGTSDDLTVVDAASLRRQIIKLNRRLQLLEEENKERAKREMVMYSITVAFWLLNSWLWFRR
notes: not shown: Flag tag

binding result [5]: no binding (tested: molar ratio about 2)
B6: scrambled variant of MFF peptide 8#11 (peptide)
peptide: SSQLRYLARSQRITIQLIAGS
notes: Control peptide in ITC; also called MFF scrambled peptide

binding result [6]: no binding
binding result [7]: no binding
B7: Flag-MFF5 (other, human, UniProt Q9GZY8-5 1-238, looked up)
chain: MAEISRIQYEMEYTEGISQRMRVPEKLKVAPPNADLEQGFQEGVPNASVIMQVPERIVVAGNNEDVSFSRPADLDLIQSTPFKPLALKTPPRVLTLSERPLDFLDLERPPTTPQNEEIRAVGRLKRERSMSENAVRQNGQLVRNDSLPVLRGGSAAATSNPHHDNVRYGISNIDTTIEGTSDDLTVVDAASLRRQIIKLNRRLQLLEEENKERAKREMVMYSITVAFWLLNSWLWFRR
notes: also called Flag-MIFFS (misprint in legend); not shown: Flag tag

binding result [8]: binds
binding result [9]: binds
binding result [10]: binds
Binder: DGANLSSARGILSLIQSSTRRAYQQILDVL (also called MFF #8) [MFF peptide #8 (Asp217-Leu246 of MFF1)]
